Data as given in patent publication US20210139548A1 (published 2021).
*1 amine or outer side, *2 acyl side, *3 side chain or, on linkers, in order; H or OH if unused. Side-chain parts run from the residue outwards. The star is where a group is joined. C18 diacid = O=C(O)CCCCCCCCCCCCCCCCC(=O)*; γGlu = O=C(O)[C@H](CCC(=O)[*:2])N[*:1]; Isovaleryl = CC(C)CC(=O)*; AEEA = NCCOCCOCC(=O)O

T1: human neuropeptide Y2 receptor (human, UniProt P49146 1-381)
T1 construct: whole, on cells; also called hNPY2 receptor; hNPY2-R
T1 sequence (looked up): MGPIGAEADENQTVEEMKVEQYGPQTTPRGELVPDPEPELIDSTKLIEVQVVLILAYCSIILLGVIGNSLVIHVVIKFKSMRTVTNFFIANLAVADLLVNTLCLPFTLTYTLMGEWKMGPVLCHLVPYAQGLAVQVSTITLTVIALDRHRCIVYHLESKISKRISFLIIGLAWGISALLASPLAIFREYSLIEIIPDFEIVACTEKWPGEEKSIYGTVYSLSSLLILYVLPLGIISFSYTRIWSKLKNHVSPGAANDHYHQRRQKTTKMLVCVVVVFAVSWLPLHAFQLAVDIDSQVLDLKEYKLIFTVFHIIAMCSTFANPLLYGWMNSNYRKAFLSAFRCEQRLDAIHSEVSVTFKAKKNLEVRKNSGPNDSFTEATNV

B1: Compound 158 (peptide)
peptide: Isovaleryl-APEK([AEEA-AEEA-γGlu-C18 diacid])PEEDASPEELQRYYVSLRHYWNYLTRQRY-NH2
SMILES: CC(C)CC(=O)N[C@@H](C)C(=O)N1CCC[C@H]1C(=O)N[C@@H](CCC(=O)O)C(=O)N[C@@H](CCCCNC(=O)COCCOCCNC(=O)COCCOCCNC(=O)CC[C@H](NC(=O)CCCCCCCCCCCCCCCCC(=O)O)C(=O)O)C(=O)N1CCC[C@H]1C(=O)N[C@@H](CCC(=O)O)C(=O)N[C@@H](CCC(=O)O)C(=O)N[C@@H](CC(=O)O)C(=O)N[C@@H](C)C(=O)N[C@@H](CO)C(=O)N1CCC[C@H]1C(=O)N[C@@H](CCC(=O)O)C(=O)N[C@@H](CCC(=O)O)C(=O)N[C@@H](CC(C)C)C(=O)N[C@@H](CCC(N)=O)C(=O)N[C@@H](CCCNC(=N)N)C(=O)N[C@@H](Cc1ccc(O)cc1)C(=O)N[C@@H](Cc1ccc(O)cc1)C(=O)N[C@H](C(=O)N[C@@H](CO)C(=O)N[C@@H](CC(C)C)C(=O)N[C@@H](CCCNC(=N)N)C(=O)N[C@@H](Cc1c[nH]cn1)C(=O)N[C@@H](Cc1ccc(O)cc1)C(=O)N[C@@H](Cc1c[nH]c2ccccc12)C(=O)N[C@@H](CC(N)=O)C(=O)N[C@@H](Cc1ccc(O)cc1)C(=O)N[C@@H](CC(C)C)C(=O)N[C@H](C(=O)N[C@@H](CCCNC(=N)N)C(=O)N[C@@H](CCC(N)=O)C(=O)N[C@@H](CCCNC(=N)N)C(=O)N[C@@H](Cc1ccc(O)cc1)C(N)=O)[C@@H](C)O)C(C)C
B2: Compound 163 (peptide)
peptide: Isovaleryl-APEK([AEEA-AEEA-γGlu-C18 diacid])PEEAASPEELQRYYVALRHYYNWLTRQRY-NH2
SMILES: CC(C)CC(=O)N[C@@H](C)C(=O)N1CCC[C@H]1C(=O)N[C@@H](CCC(=O)O)C(=O)N[C@@H](CCCCNC(=O)COCCOCCNC(=O)COCCOCCNC(=O)CC[C@H](NC(=O)CCCCCCCCCCCCCCCCC(=O)O)C(=O)O)C(=O)N1CCC[C@H]1C(=O)N[C@@H](CCC(=O)O)C(=O)N[C@@H](CCC(=O)O)C(=O)N[C@@H](C)C(=O)N[C@@H](C)C(=O)N[C@@H](CO)C(=O)N1CCC[C@H]1C(=O)N[C@@H](CCC(=O)O)C(=O)N[C@@H](CCC(=O)O)C(=O)N[C@@H](CC(C)C)C(=O)N[C@@H](CCC(N)=O)C(=O)N[C@@H](CCCNC(=N)N)C(=O)N[C@@H](Cc1ccc(O)cc1)C(=O)N[C@@H](Cc1ccc(O)cc1)C(=O)N[C@H](C(=O)N[C@@H](C)C(=O)N[C@@H](CC(C)C)C(=O)N[C@@H](CCCNC(=N)N)C(=O)N[C@@H](Cc1c[nH]cn1)C(=O)N[C@@H](Cc1ccc(O)cc1)C(=O)N[C@@H](Cc1ccc(O)cc1)C(=O)N[C@@H](CC(N)=O)C(=O)N[C@@H](Cc1c[nH]c2ccccc12)C(=O)N[C@@H](CC(C)C)C(=O)N[C@H](C(=O)N[C@@H](CCCNC(=N)N)C(=O)N[C@@H](CCC(N)=O)C(=O)N[C@@H](CCCNC(=N)N)C(=O)N[C@@H](Cc1ccc(O)cc1)C(N)=O)[C@@H](C)O)C(C)C
B3: Compound 165 (peptide)
peptide: Isovaleryl-APEK([AEEA-AEEA-γGlu-C18 diacid])PEEDASPEELQRYQVSLRHYYNWLTRQRY-NH2
SMILES: CC(C)CC(=O)N[C@@H](C)C(=O)N1CCC[C@H]1C(=O)N[C@@H](CCC(=O)O)C(=O)N[C@@H](CCCCNC(=O)COCCOCCNC(=O)COCCOCCNC(=O)CC[C@H](NC(=O)CCCCCCCCCCCCCCCCC(=O)O)C(=O)O)C(=O)N1CCC[C@H]1C(=O)N[C@@H](CCC(=O)O)C(=O)N[C@@H](CCC(=O)O)C(=O)N[C@@H](CC(=O)O)C(=O)N[C@@H](C)C(=O)N[C@@H](CO)C(=O)N1CCC[C@H]1C(=O)N[C@@H](CCC(=O)O)C(=O)N[C@@H](CCC(=O)O)C(=O)N[C@@H](CC(C)C)C(=O)N[C@@H](CCC(N)=O)C(=O)N[C@@H](CCCNC(=N)N)C(=O)N[C@@H](Cc1ccc(O)cc1)C(=O)N[C@@H](CCC(N)=O)C(=O)N[C@H](C(=O)N[C@@H](CO)C(=O)N[C@@H](CC(C)C)C(=O)N[C@@H](CCCNC(=N)N)C(=O)N[C@@H](Cc1c[nH]cn1)C(=O)N[C@@H](Cc1ccc(O)cc1)C(=O)N[C@@H](Cc1ccc(O)cc1)C(=O)N[C@@H](CC(N)=O)C(=O)N[C@@H](Cc1c[nH]c2ccccc12)C(=O)N[C@@H](CC(C)C)C(=O)N[C@H](C(=O)N[C@@H](CCCNC(=N)N)C(=O)N[C@@H](CCC(N)=O)C(=O)N[C@@H](CCCNC(=N)N)C(=O)N[C@@H](Cc1ccc(O)cc1)C(N)=O)[C@@H](C)O)C(C)C
B4: Compound 166 (peptide)
peptide: Isovaleryl-APEK([AEEA-AEEA-γGlu-C18 diacid])PPADASPEELQRYYVELRHYYNWLTRQRY-NH2
SMILES: CC(C)CC(=O)N[C@@H](C)C(=O)N1CCC[C@H]1C(=O)N[C@@H](CCC(=O)O)C(=O)N[C@@H](CCCCNC(=O)COCCOCCNC(=O)COCCOCCNC(=O)CC[C@H](NC(=O)CCCCCCCCCCCCCCCCC(=O)O)C(=O)O)C(=O)N1CCC[C@H]1C(=O)N1CCC[C@H]1C(=O)N[C@@H](C)C(=O)N[C@@H](CC(=O)O)C(=O)N[C@@H](C)C(=O)N[C@@H](CO)C(=O)N1CCC[C@H]1C(=O)N[C@@H](CCC(=O)O)C(=O)N[C@@H](CCC(=O)O)C(=O)N[C@@H](CC(C)C)C(=O)N[C@@H](CCC(N)=O)C(=O)N[C@@H](CCCNC(=N)N)C(=O)N[C@@H](Cc1ccc(O)cc1)C(=O)N[C@@H](Cc1ccc(O)cc1)C(=O)N[C@H](C(=O)N[C@@H](CCC(=O)O)C(=O)N[C@@H](CC(C)C)C(=O)N[C@@H](CCCNC(=N)N)C(=O)N[C@@H](Cc1c[nH]cn1)C(=O)N[C@@H](Cc1ccc(O)cc1)C(=O)N[C@@H](Cc1ccc(O)cc1)C(=O)N[C@@H](CC(N)=O)C(=O)N[C@@H](Cc1c[nH]c2ccccc12)C(=O)N[C@@H](CC(C)C)C(=O)N[C@H](C(=O)N[C@@H](CCCNC(=N)N)C(=O)N[C@@H](CCC(N)=O)C(=O)N[C@@H](CCCNC(=N)N)C(=O)N[C@@H](Cc1ccc(O)cc1)C(N)=O)[C@@H](C)O)C(C)C
B5: Compound 160 (peptide)
peptide: Isovaleryl-APEK([AEEA-AEEA-γGlu-C18 diacid])PEADAEPEELQRYYTSLRHYYNWLTRQRY-NH2
SMILES: CC(C)CC(=O)N[C@@H](C)C(=O)N1CCC[C@H]1C(=O)N[C@@H](CCC(=O)O)C(=O)N[C@@H](CCCCNC(=O)COCCOCCNC(=O)COCCOCCNC(=O)CC[C@H](NC(=O)CCCCCCCCCCCCCCCCC(=O)O)C(=O)O)C(=O)N1CCC[C@H]1C(=O)N[C@@H](CCC(=O)O)C(=O)N[C@@H](C)C(=O)N[C@@H](CC(=O)O)C(=O)N[C@@H](C)C(=O)N[C@@H](CCC(=O)O)C(=O)N1CCC[C@H]1C(=O)N[C@@H](CCC(=O)O)C(=O)N[C@@H](CCC(=O)O)C(=O)N[C@@H](CC(C)C)C(=O)N[C@@H](CCC(N)=O)C(=O)N[C@@H](CCCNC(=N)N)C(=O)N[C@@H](Cc1ccc(O)cc1)C(=O)N[C@@H](Cc1ccc(O)cc1)C(=O)N[C@H](C(=O)N[C@@H](CO)C(=O)N[C@@H](CC(C)C)C(=O)N[C@@H](CCCNC(=N)N)C(=O)N[C@@H](Cc1c[nH]cn1)C(=O)N[C@@H](Cc1ccc(O)cc1)C(=O)N[C@@H](Cc1ccc(O)cc1)C(=O)N[C@@H](CC(N)=O)C(=O)N[C@@H](Cc1c[nH]c2ccccc12)C(=O)N[C@@H](CC(C)C)C(=O)N[C@H](C(=O)N[C@@H](CCCNC(=N)N)C(=O)N[C@@H](CCC(N)=O)C(=O)N[C@@H](CCCNC(=N)N)C(=O)N[C@@H](Cc1ccc(O)cc1)C(N)=O)[C@@H](C)O)[C@@H](C)O
B6: Compound 169 (peptide)
peptide: Isovaleryl-APEK([AEEA-AEEA-γGlu-C18 diacid])PEEEASPEELQRYYVALRHYYNWLTRQRY-NH2
SMILES: CC(C)CC(=O)N[C@@H](C)C(=O)N1CCC[C@H]1C(=O)N[C@@H](CCC(=O)O)C(=O)N[C@@H](CCCCNC(=O)COCCOCCNC(=O)COCCOCCNC(=O)CC[C@H](NC(=O)CCCCCCCCCCCCCCCCC(=O)O)C(=O)O)C(=O)N1CCC[C@H]1C(=O)N[C@@H](CCC(=O)O)C(=O)N[C@@H](CCC(=O)O)C(=O)N[C@@H](CCC(=O)O)C(=O)N[C@@H](C)C(=O)N[C@@H](CO)C(=O)N1CCC[C@H]1C(=O)N[C@@H](CCC(=O)O)C(=O)N[C@@H](CCC(=O)O)C(=O)N[C@@H](CC(C)C)C(=O)N[C@@H](CCC(N)=O)C(=O)N[C@@H](CCCNC(=N)N)C(=O)N[C@@H](Cc1ccc(O)cc1)C(=O)N[C@@H](Cc1ccc(O)cc1)C(=O)N[C@H](C(=O)N[C@@H](C)C(=O)N[C@@H](CC(C)C)C(=O)N[C@@H](CCCNC(=N)N)C(=O)N[C@@H](Cc1c[nH]cn1)C(=O)N[C@@H](Cc1ccc(O)cc1)C(=O)N[C@@H](Cc1ccc(O)cc1)C(=O)N[C@@H](CC(N)=O)C(=O)N[C@@H](Cc1c[nH]c2ccccc12)C(=O)N[C@@H](CC(C)C)C(=O)N[C@H](C(=O)N[C@@H](CCCNC(=N)N)C(=O)N[C@@H](CCC(N)=O)C(=O)N[C@@H](CCCNC(=N)N)C(=O)N[C@@H](Cc1ccc(O)cc1)C(N)=O)[C@@H](C)O)C(C)C

Target: T1, human neuropeptide Y2 receptor
Test: radioligand competition (125I-PYY(1-36)), hNPY2R membranes
Summary of the method: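 Commercial human Y2 receptor membranes (0.5 μg protein/well) were incubated with peptide for 2 h at room temperature in 50 mM HEPES, 5 mM MgCl₂, 1 mM CaCl₂, pH 7.4, with 0.2% ovalbumin. Bound radioligand was separated on PEI-soaked GF/C filters and counted by scintillation, and IC₅₀ came from nonlinear sigmoidal regression.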

Row | Ki [nM] | Binder
1 | 4.43 | B1
2 | 0.96 | B2
3 | 2.49 | B3
4 | 0.66 | B4
5 | 2 | B5
6 | 2.34 | B6
